Measured values published in patent US20260184782A1 (TWIST BIOSCIENCE, published 2026).

Each binder was assayed against T1, recombinant human TIGIT (human, UniProt Q495A1 22-141, limits assumed) (assay: SPR Carterra, average).
T1 construct: recombinant human TIGIT used in Carterra SPR; also called hTIGIT
T1 sequence (looked up): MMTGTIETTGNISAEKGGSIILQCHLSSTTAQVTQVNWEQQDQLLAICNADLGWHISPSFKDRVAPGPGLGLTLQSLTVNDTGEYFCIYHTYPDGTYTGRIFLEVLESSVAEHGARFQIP
Protocol: Binding affinities of VHH-Fc proteins to recombinant human TIGIT were measured by SPR using a Carterra instrument (Table 10A). […] Average values reported from measurements from 1-2 samples.

Binder | Kd [nM] | koff [s⁻¹] | kon [M⁻¹ s⁻¹]
TIGIT-SC214 (Fc fusion, VHH-Fc fusion in assay) VHH: EVQLVESGGGLVQPGGSLRLSCAASGFTFGDSWMGWFRQAPGKEHEFVAAIWRSGTLKAYADSVKGRFTISADNSKNTAYLQMNSLKPEDTAVYYCTSYDAVAGTRDFWGQGTLVTVSS | 6.13 | 0.0248 | 4.05e+06
TIGIT-SC33 (Fc fusion, VHH-Fc fusion in assay) VHH: EVQLVESGGGLVQPGGSLRLSCAASGFLFDSYAMGWFRQAPGKEREFVAAVSQSGLLTFYADSVKGRFTISADNSKNTAYLQMNSLKPEDTAVYYCASRTSSWWWFDPWGQGTLVTVSS | 6.72 | 0.00107 | 182000
TIGIT-SC31 (Fc fusion, VHH-Fc fusion in assay) VHH: EVQLVESGGGLVQPGGSLRLSCAASGRAFESYAMGWFRQAPGKERELVATIGWSGTDYADSVKGRFTISADNSKNTAYLQMNSLKPEDTAVYYCAKGYTSGLSDWGQGTLVTVSS | 4.74 | 0.0062 | 1.31e+06
TIGIT-SC4 (Fc fusion, VHH-Fc fusion in assay) VHH: EVQLVESGGGLVQPGGSLRLSCAASGSIDRINAMGWFRQATGKEREWVASVLRGGYTWYADSVKGRFTISADNSKNTAYLQMNSLKPEDTAVYYCARDSYSTSFWFDPWGQGTLVTVSS | 6.24 | 0.00222 | 356000
TIGIT-SC51 (Fc fusion, VHH-Fc fusion in assay) VHH: EVQLVESGGGLVQPGGSLRLSCAASGRTEANYAMGWFRQAPGKEREFVAAISWDGGATAYADSVKGRFTISADNSKNTAYLQMNSLKPEDTAVYYCGDYEGHWGQGTLVTVSS | 5.15 | 0.00981 | 2.1e+06
TIGIT-SC68 (Fc fusion, VHH-Fc fusion in assay) VHH: EVQLVESGGGLVQPGGSLRLSCAASGHTFRGYAMGWFRQAPGKEREAVAAISWSGDNTYYADSVKGRFTISADNSKNTAYLQMNSLKPEDTAVYYCGDYEGHWGQGTLVTVSS | 5.49 | 0.0103 | 1.87e+06
TIGIT-SC115 (Fc fusion, VHH-Fc fusion in assay) VHH: EVQLVESGGGLVQPGGSLRLSCAASGNTFSGGFMGWFRQAPGKEREWVASVLRGGYTWYADSVKGRFTISADNSKNTAYLQMNSLKPEDTAVYYCAGTGLWGQGTLVTVSS | 8.42 | 0.00241 | 262000
TIGIT-SC116 (Fc fusion, VHH-Fc fusion in assay) VHH: EVQLVESGGGLVQPGGSLRLSCAASGFTFSPSWMGWFRQAPGKEREWVASVLRGGYTWYADSVKGRFTISADNSKNTAYLQMNSLKPEDTAVYYCDAADYWGQGTLVTVSS | 4.08 | 0.000696 | 209000
TIGIT-SC92 (Fc fusion, VHH-Fc fusion in assay) VHH: EVQLVESGGGLVQPGGSLRLSCAASGSTIENYAMGWFRQAPGKEREFVAAIDWSGGSTYYADSVKGRFTISADNSKNTAYLQMNSLKPEDTAVYYCARWRSIWSGYDDYYYMDVWGQGTLVTVSS | 105 | 0.00289 | 27500
TIGIT-SC91 (Fc fusion, VHH-Fc fusion in assay) VHH: EVQLVESGGGLVQPGGSLRLSCAASGFTFSNYAMGWFRQAPGKEREFVAAINWNSRSTYYADSVKGRFTISADNSKNTAYLQMNSLKPEDTAVYYCARWRSIWSGYDDYYYMDVWGQGTLVTVSS | 5.42 | 0.0071 | 1.31e+06
TIGIT-SC93 (Fc fusion, VHH-Fc fusion in assay) VHH: EVQLVESGGGLVQPGGSLRLSCAASSRTVSSHAMGWFRQAPGKEREFVAAISWSGVTTYYADSVKGRFTISADNSKNTAYLQMNSLKPEDTAVYYCARWRSIWSGYDDYYYMDVWGQGTLVTVSS | 49.9 | 0.00407 | 81500
TIGIT-SC121 (Fc fusion, VHH-Fc fusion in assay) VHH: EVQLVESGGGLVQPGGSLRLSCAASGFTFSPSWMGWFRQAPGKEREWVASVLRGGYTWYADSVKGRFTISADNSKNTAYLQMNSLKPEDTAVYYCTTEGFDPWGQGTLVTVSS | 4.68 | 0.00112 | 344000
TIGIT-SC188 (Fc fusion, VHH-Fc fusion in assay) VHH: EVQLVESGGGLVQPGGSLRLSCAASGNTFSGGFMGWFRQAPGKEREWVASVLRGGYTWYADSVKGRFTISADNSKNTAYLQMNSLKPEDTAVYYCTTDSLPGWGQGTLVTVSS | 77.1 | 0.00309 | 42500
TIGIT-SC111 (Fc fusion, VHH-Fc fusion in assay) VHH: EVQLVESGGGLVQPGGSLRLSCAASGDTFSGGFMGWFRQAPGKEREWVASVLRGGYTWYADSVKGRFTISADNSKNTAYLQMNSLKPEDTAVYYCTRGGMDVWGQGTLVTVSS | 4.37 | 0.00743 | 1.7e+06
TIGIT-SC187 (Fc fusion, VHH-Fc fusion in assay) VHH: EVQLVESGGGLVQPGGSLRLSCAASGFTFSPSWMGWFRQAPGKEREWVASVLRGGYTWYADSVKGRFTISADNSKNTAYLQMNSLKPEDTAVYYCTTDSLPGWGQGTLVTVSS | 17.2 | 0.000586 | 34000
TIGIT-SC98 (Fc fusion, VHH-Fc fusion in assay) VHH: EVQLVESGGGLVQPGGSLRLSCAASGNTFSGGFMGWFRQAPGKEREWVASVLRGGYTWYADSVKGRFTISADNSKNTAYLQMNSLKPEDTAVYYCTTEGFDPWGQGTLVTVSS | 5.79 | 0.00137 | 237000
TIGIT-SC60 (Fc fusion, VHH-Fc fusion in assay) VHH: EVQLVESGGGLVQPGGSLRLSCAASGFTFSPSWMGWFRQAPGKEREWVASVLRGGYTWYADSVKGRFTISADNSKNTAYLQMNSLKPEDTAVYYCARDDLDYWGQGTLVTVSS | 84.6 | 0.00184 | 21800
TIGIT-SC46 (Fc fusion, VHH-Fc fusion in assay) VHH: EVQLVESGGGLVQPGGSLRLSCAASGRTFSNYVMGWFRQAPGKERELVASISSFGSTYYADSVKGRFTISADNSKNTAYLQMNSLKPEDTAVYYCARSGGFLSDWGQGTLVTVSS | 4.45 | 0.00416 | 1.01e+06
TIGIT-SC86 (Fc fusion, VHH-Fc fusion in assay) VHH: EVQLVESGGGLVQPGGSLRLSCAASGIIASDSAMGWFRQAPGKEREFVAAIRWSGKETWYADSVKGRFTISADNSKNTAYLQMNSLKPEDTAVYYCARWGGVTFGGVYPLEYWGQGTLVTVSS | 7.14 | 0.00212 | 341000
TIGIT-SC88 (Fc fusion, VHH-Fc fusion in assay) VHH: EVQLVESGGGLVQPGGSLRLSCAASGFTFSSDWMGWFRQAPGKEREFVAAINRSGHSTSYADSVKGRFTISADNSKNTAYLQMNSLKPEDTAVYYCARWGGVTFGGVYPLEYWGQGTLVTVSS | 22 | 0.00204 | 92500
TIGIT-SC25 (Fc fusion, VHH-Fc fusion in assay) VHH: EVQLVESGGGLVQPGGSLRLSCAASGNTFSGGFMGWFRQAPGKEREWVASVLRGGYTWYADSVKGRFTISADNSKNTAYLQMNSLKPEDTAVYYCTTVGYGDYWGQGTLVTVSS | 22.5 | 0.00174 | 77200
TIGIT-SC42 (Fc fusion, VHH-Fc fusion in assay) VHH: EVQLVESGGGLVQPGGSLRLSCAASGNTFSGGFMGWFRQAPGKEREWVATVLRGGYTWYADSVKGRFTISADNSKNTAYLQMNSLKPEDTAVYYCASGGFLASWGQGTLVTVSS | 1400 | 0.197 | 141000
TIGIT-SC201 (Fc fusion, VHH-Fc fusion in assay) VHH: EVQLVESGGGLVQPGGSLRLSCAASGFTFSPSWMGWFRQAPGKEREWVASVLRGGYTWYADSVKGRFTISADNSKNTAYLQMNSLKPEDTAVYYCTRDGGFDPWGQGTLVTVSS | 1590 | 0.000901 | 567
TIGIT-SC191 (Fc fusion, VHH-Fc fusion in assay) VHH: EVQLVESGGGLVQPGGSLRLSCAASGFVFSSDWMGWFRQAPGKEREWVASVLRGGYTWYADSVKGRFTISADNSKNTAYLQMNSLKPEDTAVYYCARGDSMDVWGQGTLVTVSS | 401 | 0.125 | 313000
TIGIT-SC198 (Fc fusion, VHH-Fc fusion in assay) VHH: EVQLVESGGGLVQPGGSLRLSCAASGFTFSPSWMGWFRQAPGKEREYVASVLRGGYTWYADSVKGRFTISADNSKNTAYLQMNSLKPEDTAVYYCASEGDPDYWGQGTLVTVSS | 27.6 | 0.00285 | 103000
TIGIT-SC200 (Fc fusion, VHH-Fc fusion in assay) VHH: EVQLVESGGGLVQPGGSLRLSCAASGNTFSGGFMGWFRQAPGKEREWVASVLRGGYTWYADSVKGRFTISADNSKNTAYLQMNSLKPEDTAVYYCTRDGGFDPWGQGTLVTVSS | 5.34 | 0.00143 | 290000
TIGIT-SC171 (Fc fusion, VHH-Fc fusion in assay) VHH: EVQLVESGGGLVQPGGSLRLSCAASGFTFDRSWMGWFRQAPGKEREWVASVLRGGYTWYADSVKGRFTISADNSKNTAYLQMNSLKPEDTAVYYCATERRLGVWGQGTLVTVSS | 51 | 0.00441 | 90200
TIGIT-SC195 (Fc fusion) VHH: EVQLVESGGGLVQPGGSLRLSCAASGFAFSSDWMGWFRQAPGKEREWVASVLRGGYTWYADSVKGRFTISADNSKNTAYLQMNSLKPEDTAVYYCARGEGFDYWGQGTLVTVSS | 478 | 0.142 | 296000
TIGIT-SC203 (Fc fusion, VHH-Fc fusion in assay) VHH: EVQLVESGGGLVQPGGSLRLSCAASGFTFSPSWMGWFRQAPGKEREWVASVLRGGYTWYADSVKGRFTISADNSKNTAYLQMNSLKPEDTAVYYCARDRGGSDWGQGTLVTVSS | 914 | 0.14 | 153000
